The values below come from publication PMC12594183 (2026).

The chains are these.
T1: SIRT1 NTD(3HB)-CD (Homo sapiens, UniProt Q96EB6)
T1 chain: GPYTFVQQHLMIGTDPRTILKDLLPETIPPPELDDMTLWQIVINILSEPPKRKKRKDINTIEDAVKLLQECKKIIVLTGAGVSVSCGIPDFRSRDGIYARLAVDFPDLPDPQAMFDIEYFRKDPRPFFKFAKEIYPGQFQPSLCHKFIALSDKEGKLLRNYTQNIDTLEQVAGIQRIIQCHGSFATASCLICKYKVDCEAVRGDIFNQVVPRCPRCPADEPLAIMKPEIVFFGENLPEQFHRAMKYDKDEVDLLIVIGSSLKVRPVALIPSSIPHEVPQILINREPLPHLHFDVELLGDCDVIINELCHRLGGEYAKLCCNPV

T2: SIRT1 NTD(3HB) (Homo sapiens, UniProt Q96EB6)
T2 chain: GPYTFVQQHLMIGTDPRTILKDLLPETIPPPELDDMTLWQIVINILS

T3: SIRT1 CD (Homo sapiens, UniProt Q96EB6)
T3 chain: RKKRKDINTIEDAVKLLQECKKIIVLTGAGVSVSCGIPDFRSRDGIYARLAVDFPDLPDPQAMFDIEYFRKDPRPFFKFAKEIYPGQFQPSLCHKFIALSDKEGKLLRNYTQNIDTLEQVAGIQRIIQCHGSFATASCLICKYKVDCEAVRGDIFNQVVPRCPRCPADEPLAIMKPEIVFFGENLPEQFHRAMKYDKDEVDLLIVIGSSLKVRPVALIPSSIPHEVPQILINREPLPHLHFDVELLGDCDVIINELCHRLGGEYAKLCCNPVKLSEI

B1: PPARγ DBD-LBD (protein)
chain: AIECRVCGDKASGFHYGVHACEGCKGFFRRTIRLKLIYDRCDLNCRIHKKSRNKCQYCRFQKCLAVGMSHNAIRFGRMPQAEKEKLLAEISSDIDQLNPESADLRALAKHLYDSYIKSFPLTKAKARAILTGKTTDKSPFVIYDMNSLMMGEDKIKFKHITPLQEQSKEVAIRIFQGCQFRSVEAVQEITEYAKSIPGFVNLDLNDQVTLLKYGVHEIIYTMLASLMNKDGVLISEGQGFMTREFLKSLRKPFGDFMEPKFEFAVKFNALELDDSDLAIFIAVIILSGDRPGLLNVKPIEDIQDNLLQALELQLKLNHPESSQLFAKLLQKMTDLRQIVTEHVQLLQVIKKTETDMSLHPLLQEIYKDLY
modifications: Rosiglitazone
B2: PPARγ DBD-LBD (protein)
chain: B1 chain
modifications: NAD+
B3: PPARγ DBD-LBD (protein)
chain: B1 chain
B4: PPARγ LBD (protein)
chain: PESADLRALAKHLYDSYIKSFPLTKAKARAILTGKTTDKSPFVIYDMNSLMMGEDKIKFKHITPLQEQSKEVAIRIFQGCQFRSVEAVQEITEYAKSIPGFVNLDLNDQVTLLKYGVHEIIYTMLASLMNKDGVLISEGQGFMTREFLKSLRKPFGDFMEPKFEFAVKFNALELDDSDLAIFIAVIILSGDRPGLLNVKPIEDIQDNLLQALELQLKLNHPESSQLFAKLLQKMTDLRQIVTEHVQLLQVIKKTETDMSLHPLLQEIYKDLY
B5: PPARγ LBD (protein)
chain: B4 chain with L32R
B6: PPARγ LBD (protein)
chain: B4 chain with K60Q
B7: PPARγ LBD (protein)
chain: B4 chain with K35Q
B8: PPARγ LBD (protein)
chain: B4 chain with V43R
B9: PPARγ LBD (protein)
chain: B4 chain with Q66D

Changes are numbered by the printed parent chain.

By Kd is commonly meant a measure of binding affinity in units of concentration. Read a high Kd as lower affinity.

The first test has as its target T1, SIRT1 NTD(3HB)-CD. The test is described as follows: FP.
In turn, B1 gave a Kd of 690 nM.

With B2, the affinity, expressed as Kd, was 1670 nM.

In turn, B3 yielded a Kd of 1900 nM.

Regarding B4, the Kd was found to be 240 nM.

Turning to B5, the Kd turned out to be 170 nM.

For the molecule B6, the Kd is 210 nM.

In turn, B7 returned a Kd of 560 nM.

In turn, B8 registered a Kd of 810 nM.

B9 came in with a Kd of 111000 nM.

In another test the target is T2, SIRT1 NTD(3HB). Kind of test: FP.
In turn, B4 gave a Kd of 6550 nM.

In another test the target is T3, SIRT1 CD. The test is described as follows: FP.
B4 showed a Kd of 1620 nM.
